B1: CSE025: clustered SOX dimer motif enhancer, SEQ ID NO: 45 (nucleic acid)
DNA: ATGGACAATGGCAGCCTGAAAGAATATGAGGGAGGGTCACCAGTGATGGACATGGTTTGGGGAGAGCCCAAGAATTGAAGGGGACTTGGGATTGTTGACAGACCTTCCACATCTCAGAATGGGGGAAGTGGTTTCTTTTTTCCTCATTCTCCAAGGCTTCTCAGTCTCAGAGACCCCAAGAGATGCCATTAATACAGATTCCTCCTCTGGCTCCTTTGAGACATTTGCTTTTGAAGGACCTGGAAGAGAAAGCTCTTTGTATGTGGCCAGAATAAACTCATTGTACACCCAAACAATTAACTCCTCAATGGACTTGCCAGCCCCTTGAAAGGCCTGGCCCTGCGTCCCTGGACCTCTTGGGCTCTATTCAGTCCCTTAAGCACACCAATGTTTTTGGGTTTTTGTTTTGTTTTGTTTGTTATTCTGAAAAGTCTTTCCCTGAGAATAGTCTGAGCGGATCAACATTGTCCTCAGCCTGGCATTTATCTCTCCTCGCCAGCGAATGTCAATCAGGAATCAAAAAGCCAAACAGAGGAGGCTTTGAACGGTGTCATCGGGGGTCGAAGTGACTTCCAGCTGTCTGTGCGTGGGCCAGGCCTTCTCGCAGGGCAAGGAATTGTGCTGTCACACAAACCCACTGTCTGTATAGGCTCACAGAGCCCA
B2: CSE088: clustered SOX dimer motif enhancer, SEQ ID NO: 44 (nucleic acid)
DNA: CTCGATACCCACATTCCTAACCTTTTAATGCCAAGCAGCCTATAAGCATGTCAAATTTTACTCATGTTCCTGCTCTTTCCACTCAAGTTGGCTTTGTGGGTTGCTGGTTTTATCAAAATTGAGTGAGAGTGTGTTCAATACAATGTTGGATTCATTAGGGAGAAAAAAGCCAAATAAAAACCTTGCTTCTTCAATGCCAGGAGCTTACAAAGACATATAAACCATGAGGAATTCCAAGGACTTGCTCAGAAGCCGTTCTGCAAATGCATTTCTTGAACAAAGGGCCAATGTTCCTTTCAGGGAAGAGCGCGGGACTGGTTTCCGGCATTTTTCTTTAAATCATTAGGACCATGCCAGCAAACAAACATATACAGCCCCTGGGAGAAAGAATCTCATTCAACACAGCTTACAAGAGTTTGATTATTAGGGAGGGGTGCTTCATGGCACGTGCCTCACCAGCCGGCCCCCAAATGTACAGATCTGTTTAAAGGGCTTTATTGATGGTGGCCGCAGACAGATAGAGCTTGTGAGGAGAACTGACATCCCATGGATACTAACATATCAGCATCATCCTGACCAGCACACAATCCAGTCAGAGAGAGCTGAAAAGTCTGCCTCATTCCCTTGAAAATGTGCTTCTTAAGACAAATAAAATATAGAAATAAGAAATTCACCTC
B3: CSE033: clustered SOX dimer motif enhancer, SEQ ID NO: 46 (nucleic acid)
DNA: CTGGGGAACAAAACTTAGATCTTGATCATCCAGCATAGCTCTGGCATGCTGAGCGTGTGATACACCTGTCTCTACCGTCAGGCAAACGAGTGGGTTCACAGGCAGAGGCCTGCCCTGCCAAACAATGCTCCCCTTTGTCCCCGCCCAGGGCTCAGGAGCCGCAAGGAAGCCAAATCCATCAGCACTTGTCAGGGCCCTTGATGCACACAATGCAAGTTATGATCCACAGTCCCCGGCAAAGCCCCAGGCTTCCAGCAGGCAGCATTAACTGACACGCAATGTGTCAGTCAGCCTTCTAAAAGCCAGGGGTGGGGATCCGTGCCAGGGGGCCACTGAGCTCTCATTCCCAGAAGCCAACCAGAGCC

test system: GSC7 cells; test: Nano-Glo Dual-Luciferase Reporter (Nanoglo DLR) assay of enhancer activity, fold change to mCMV; assay type: cell-based, human; conditions: expression fold change of the individual enhancer compared to mCMV
From the text: We chose an arrayed library format, with 160 bp enhancer fragments individually cloned into separate plasmids and arrayed in 96 well plates. These 160 bp were synthesized as a single pool of oligos, then randomly cloned into the plasmid and isolated. 20 bp×2 were needed for PCR amplification of the pool and so a library of 200 bp fragments was synthesized (Twist Biosciences). To meet our oligo synthesis strategy, ChIP-seq peaks expressed by GSCs were merged into a single oligo. This oligonucleotide pool was PCR-amplified (using limited cycles to reduce bias and ‘jackpot’ products meaning products which are easier to amplify will overtake the oligonucleotide pool) and cloned into the expression vector by an efficient Golden Gate reaction. 4579 individual plasmids were then randomly picked, isolated and plated as an arrayed plasmid DNA library on 96 well plates (×48). The bacterial colony picking and production of plasmid minipreps were supported by the Edinburgh Genome Foundry (S. Rosser). This library was then screened using the optimised Nanoglo DLR assay (Nano-Glo Dual-Luciferase Reporter Assay, Promega) in 384 well format. Each plate was transiently transfected together with PGK-FFLuc in a 1:10 ratio into GSC7 cells. 2 days later a Nanoglo DLR assay was performed and assayed on a plate reader.
Cells were seeded in 384 well plates using a multidrop and transfected the following day using the CyBio Felix. Two days later the experiment was terminated with a Nanoglo DLR assay and all hits with a fold change to mCMV greater than 10 were Sanger sequenced and mapped back to the genome.
Cells were seeded at the required density. The following day the transfection was carried out. For this the Plus reagent and Lipofectamine LTX (Life Technologies, 15338030) were each diluted in half the volume of Opti-MEM I Reduced-Serum Medium (further referred to as Optimem) (Life Technologies, 31985062). Following this step, the Plus reagent/Optimem premix was added to all DNA samples followed by the Lipofectamine LTX/Optimem premix. The transfection mix was incubated for 5 min at room temperature and then carefully dropped on the cells. Generally, no media change was carried out. Cells were analysed two days following transfection.
This assay consists of two steps. The transfection was carried out using a normalisation plasmid PGK-Firefly-Luciferase (Promega, E5011) that was transfected in a 1/10 ratio with the plasmid of interest. First, the Firefly Luciferase activity is measured which allows to normalise to transfection efficiency. In a second step, the activity of Nanoluc is determined which is the readout of the plasmid of interest. Cells were washed 3× with PBS and 20 μl was left in the 96 well plate after the final wash (25 μl in 384 well). Oneglo buffer was added and the plate was shaken for 5 min at 480 rpm to allow cell lysis. 20 μl cell lysate in 96 well format or 25 μl cell lysate in 384 well format was then transferred into the corresponding opaque white plate and luminescence was measured at for 0.1 s per well using the Ensight Multimode Plate Reader. For the following Nanoluc reaction in a 96 well format 2 μl cell lysate was transferred into an opaque white plate containing 40 μl PBS, and 20 μl Stopglo buffer, supplemented with substrate, was added to each well. In a 384 well format 20 μl Stopglo buffer containing substrate were added on top of the undiluted cell lysate. The plate was shaken again for 5 min at 480 rpm to quench the firefly luciferase reaction and ensure good mixing. Nanoluc activity was measured for 0.1 s per well, again using Ensight Multimode Plate Reader.
Data obtained by the Nanoluc reaction was normalised to Firefly reaction to account for well-to-well variability of transfection efficiency. Normalised data were used to calculate the fold change to the empty vector control mCMV.

Molecule	Fold change (Median)
B1	21.3 fold
B2	16.5 fold
B3	20.9 fold

Source: patent US20260241035A1, “FUNCTIONAL NUCLEIC ACID MOLECULE AND METHOD” (THE UNIVERSITY COURT OF THE UNIVERSITY OF EDINBURGH, priority 2022, published 2026)
